The target of this experiment is E. coli GyrB (DNA gyrase subunit B) (E. coli) (UniProt P0AES6).

E. coli GyrA (DNA gyrase subunit A), sequence (P0AES4 whole entry): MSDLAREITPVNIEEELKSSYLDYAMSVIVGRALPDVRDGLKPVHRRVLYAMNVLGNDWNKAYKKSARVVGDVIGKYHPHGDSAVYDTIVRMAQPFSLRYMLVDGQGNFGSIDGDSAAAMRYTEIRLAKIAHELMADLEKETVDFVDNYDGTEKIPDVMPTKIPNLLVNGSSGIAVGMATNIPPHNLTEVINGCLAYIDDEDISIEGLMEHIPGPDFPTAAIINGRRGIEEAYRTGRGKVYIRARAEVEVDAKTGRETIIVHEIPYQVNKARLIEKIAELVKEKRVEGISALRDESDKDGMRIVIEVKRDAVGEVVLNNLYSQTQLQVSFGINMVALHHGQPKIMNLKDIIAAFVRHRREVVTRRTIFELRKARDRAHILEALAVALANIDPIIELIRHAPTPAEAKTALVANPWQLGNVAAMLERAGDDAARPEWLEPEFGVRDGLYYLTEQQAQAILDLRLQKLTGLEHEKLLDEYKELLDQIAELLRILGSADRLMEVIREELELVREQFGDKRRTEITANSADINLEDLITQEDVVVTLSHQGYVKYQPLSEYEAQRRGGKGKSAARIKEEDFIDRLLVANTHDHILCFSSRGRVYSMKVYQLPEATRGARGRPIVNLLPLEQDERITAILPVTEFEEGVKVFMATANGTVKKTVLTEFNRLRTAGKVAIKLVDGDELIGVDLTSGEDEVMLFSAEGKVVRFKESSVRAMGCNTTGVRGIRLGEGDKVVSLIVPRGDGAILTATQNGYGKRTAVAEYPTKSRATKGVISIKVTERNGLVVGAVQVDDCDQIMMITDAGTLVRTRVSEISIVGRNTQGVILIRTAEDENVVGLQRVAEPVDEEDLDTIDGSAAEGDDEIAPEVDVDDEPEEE

For the substance “E. coli GyrA (DNA gyrase subunit A) (from UniProt P0AES4 1-875) (enzyme)”, the supercoiling of relaxed pMP1000 plasmid by gyrase reconstituted from the two purified subunits; time course 5-80 s after ATP, 30 °C, chloroquine gel (supercoils/sec) was determined as 5.

For the origin of these results see article PMC6463007.
